Results reported in patent publication CN116355099A (BEIJING KENUO XINCHENG TECH CO LTD, dated 2023).

T1: human OX40 on HT1080-hOX40 cells (human, UniProt P43489 29-277)
T1 sequence (looked up): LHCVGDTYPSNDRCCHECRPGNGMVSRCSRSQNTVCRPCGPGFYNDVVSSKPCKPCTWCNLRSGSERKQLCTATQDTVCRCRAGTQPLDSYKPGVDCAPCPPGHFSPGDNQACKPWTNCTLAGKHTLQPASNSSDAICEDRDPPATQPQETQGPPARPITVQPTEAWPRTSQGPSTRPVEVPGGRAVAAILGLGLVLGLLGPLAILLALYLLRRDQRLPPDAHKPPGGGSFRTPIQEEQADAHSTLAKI

T2: 人OX40胞外区重组蛋白(OX40-His) (human, UniProt P43489 29-214)
T2 construct: extracellular domain; also called 人OX40重组蛋白(10481-H08H，北京义翘神州); 人OX40胞外区融合蛋白; not shown: His tag
T2 sequence (looked up): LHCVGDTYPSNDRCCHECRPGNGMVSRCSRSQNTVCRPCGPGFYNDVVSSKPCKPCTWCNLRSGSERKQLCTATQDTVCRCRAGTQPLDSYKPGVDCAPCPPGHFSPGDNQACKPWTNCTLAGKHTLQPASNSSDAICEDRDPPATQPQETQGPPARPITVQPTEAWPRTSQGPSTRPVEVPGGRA


Assays:
[1] = biological target: PD-L1 on CHO-PD-L1-CD3L cells (UniProt Q9NZQ7 19-290, limits assumed); assay: cell-based or functional assay
[2] = biological target: T1, human OX40 on HT1080-hOX40 cells; assay: cell-based or functional assay
人PD-L1胞外区重组蛋白(PD-L1-His) [3] = biological target: T3, 人PD-L1胞外区重组蛋白(PD-L1-His) (human, UniProt Q9NZQ7 19-238); assay: ELISA, PD-L1-His coated at 1 ug/mL, anti-human Fc-HRP detection
T3 construct: extracellular domain; also called 人PD-L1重组蛋白(10084-H08H，北京义翘神州); 人PD-L1胞外区融合蛋白; not shown: His tag

人OX40胞外区重组蛋白(OX40-His) [4] = biological target: T2, 人OX40胞外区重组蛋白(OX40-His); assay: ELISA, OX40-His coated at 1 ug/mL, anti-human Fc-HRP detection
PD-L1-mFc = biological target: T4, PD-L1-mFc (UniProt Q9NZQ7 19-238, limits assumed); assay: competition ELISA: PD-1-hFc coated, PD-L1-mFc 1 ug/ml in solution, blocking of PD-L1 binding to PD-1
T4 construct: also called 重组PD-L1; not shown: mouse Fc (mFc)

人PD-L1胞外区重组蛋白(PD-L1-His) [5] = biological target: T3, 人PD-L1胞外区重组蛋白(PD-L1-His); assay: BLI (Octet QKe), antibody captured on AHC probe, antigen in solution, 1:1 Langmuir fit
人OX40胞外区重组蛋白(OX40-His) [6] = biological target: T2, 人OX40胞外区重组蛋白(OX40-His); assay: as above
人OX40胞外区重组蛋白(OX40-His) [7] = biological target: T2, 人OX40胞外区重组蛋白(OX40-His); assay: ELISA, OX40-His coated

T3 sequence (Q9NZQ7 19-238): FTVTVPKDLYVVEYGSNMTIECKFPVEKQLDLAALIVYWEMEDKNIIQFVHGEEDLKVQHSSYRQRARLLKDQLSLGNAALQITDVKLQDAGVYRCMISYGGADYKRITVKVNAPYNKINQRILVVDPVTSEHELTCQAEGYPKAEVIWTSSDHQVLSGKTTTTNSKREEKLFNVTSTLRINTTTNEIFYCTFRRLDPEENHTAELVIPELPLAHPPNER
PD-L1 on CHO-PD-L1-CD3L cells, sequence (Q9NZQ7 19-290 limits assumed): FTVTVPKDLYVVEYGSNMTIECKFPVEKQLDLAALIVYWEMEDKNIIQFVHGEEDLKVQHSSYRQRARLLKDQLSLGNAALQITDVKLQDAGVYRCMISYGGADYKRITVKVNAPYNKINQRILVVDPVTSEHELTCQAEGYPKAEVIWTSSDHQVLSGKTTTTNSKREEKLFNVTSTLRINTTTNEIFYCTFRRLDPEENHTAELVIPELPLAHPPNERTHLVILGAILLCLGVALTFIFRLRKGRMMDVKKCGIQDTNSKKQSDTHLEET
T4 sequence (Q9NZQ7 19-238 limits assumed): as the sequence (Q9NZQ7 19-238) above

对PD-1/PD-L1信号通路的阻断活性 (Jurkat-PD1-NFAT / CHO-PD-L1-CD3L luciferase reporter), IC50 [1] [nM]	刺激HT1080-huOX40细胞表达IL8活性, EC50 [2] [µg/mL]	EC50 (人PD-L1胞外区重组蛋白(PD-L1-His) [3]) [nM]	EC50 (人OX40胞外区重组蛋白(OX40-His) [4]) [nM]	IC50 (PD-L1-mFc) [nM]	Kd (人PD-L1胞外区重组蛋白(PD-L1-His) [5]) [nM]	Kd (人OX40胞外区重组蛋白(OX40-His) [6]) [nM]	binding result (人OX40胞外区重组蛋白(OX40-His) [7])	Binder
4.75	0.247	0.563	0.0877	6.84	1	5	–	hz25A7-hzF2 (bispecific antibody, human IgG1, kappa, Symmetric four-chain molecule (two of peptide chain 1, two of peptide chain 2); expressed in HEK293, purified on Protein A; also called 抗PD-L1/OX40双特异性抗体 hz25A7-hzF2; OX40/PD-L1双特异性抗体) heavy: not shown light: DIQMTQSPSSLSASVGDRVTITCRASKSVSTSGSSYIHWYQQKPGKAPKLLIYLASNLESGVPSRFSGSGSGTDFTLTISSLQPEDFATYYCQHSRELPLTFGGGTKVEIKRTVAAPSVFIFPPSDEQLKSGTASVVCLLNNFYPREAKVQWKVDNALQSGNSQESVTEQDSKDSTYSLSSTLTLSKADYEKHKVYACEVTHQGLSSPVTKSFNRGEC
3.38	2.28	0.651	0.0781	7.12	1.3	8	–	hz27G12-hzF2 (bispecific antibody, human IgG1, kappa, Symmetric four-chain molecule (two of peptide chain 1, two of peptide chain 2); expressed in HEK293, purified on Protein A; also called 抗PD-L1/OX40双特异性抗体 hz27G12-hzF2; OX40/PD-L1双特异性抗体) heavy: not shown light: EIVMTQSPATLSVSPGERATLSCKASQSVDYEGDSYMNWYQQKPGQAPKLLIYAASNLESGIPARFSGSGSGTDFTLTISSLEPEDFATYYCQQSNEDPYTFGGGTKVEIKRTVAAPSVFIFPPSDEQLKSGTASVVCLLNNFYPREAKVQWKVDNALQSGNSQESVTEQDSKDSTYSLSSTLTLSKADYEKHKVYACEVTHQGLSSPVTKSFNRGEC
–	–	–	–	–	–	–	binds	抗OX40人源化抗体hz27G12 (antibody, V domains shown, Parental humanised anti-OX40 monoclonal antibody (from CN202010063141.3); also called 单抗hz27G12) VH: EVQLVQSGAEVKKPGASVKVSCKASGYTFTEYIIHWVRQAPGQGLEWIGWFYPESGSIKYNEKFKDRVTITRDTSTSTVYMELSSLRSEDTAVYYCARHEDPITFAYWGQGTLVTVSS VL: EIVMTQSPATLSVSPGERATLSCKASQSVDYEGDSYMNWYQQKPGQAPKLLIYAASNLESGIPARFSGSGSGTDFTLTISSLEPEDFATYYCQQSNEDPYTFGGGTKVEIK
–	–	–	–	–	–	–	binds	抗OX40人源化抗体hz25A7 (antibody, V domains shown, Parental humanised anti-OX40 monoclonal antibody (from CN202010063141.3); also called 单抗hz25A7) VH: EVQLVESGGGLVQPGRSLRLSCAASGFTFSSHDMSWVRQAPGKGLELVAAINSEGGRIYYPDTMERRFTISRDNSKNTLYLQMNSLRAEDTAVYYCARHYDNYAWFAYWGQGTLVTVSS VL: DIQMTQSPSSLSASVGDRVTITCRASKSVSTSGSSYIHWYQQKPGKAPKLLIYLASNLESGVPSRFSGSGSGTDFTLTISSLQPEDFATYYCQHSRELPLTFGGGTKVEIK
